From paper PMC9482650, “Quantitative fragmentomics allow affinity mapping of interactomes” (Nature Communications, 2022)

Key:
Test in all cases: holdup assay
Set-up in all cases: key: below the threshold = too weak to quantify, mostly under pKd 3.1 to 4
AHNAK1, Q09666 = biological target: AHNAK1, Q09666
ARHGEF12, Q9NZN5-2 = biological target: ARHGEF12, Q9NZN5-2
CARD11, Q9BXL7 = biological target: T1, CARD11, Q9BXL7
T1 sequence (Q9BXL7 662-765, limits assumed, looked up): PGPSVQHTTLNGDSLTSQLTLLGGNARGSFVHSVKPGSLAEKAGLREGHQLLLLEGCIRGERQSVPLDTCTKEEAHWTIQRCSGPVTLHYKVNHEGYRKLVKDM

DLG2_3, Q15700 = biological target: DLG2_3, Q15700
HTRA3, P83110 = biological target: T2, HTRA3, P83110
T2 sequence (P83110 354-453, limits assumed, looked up): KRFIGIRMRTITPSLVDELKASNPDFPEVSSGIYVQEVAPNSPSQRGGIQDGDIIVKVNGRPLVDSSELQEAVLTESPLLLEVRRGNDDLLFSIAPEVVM

HTRA4, P83105 = biological target: T3, HTRA4, P83105
T3 sequence (P83105 378-476, limits assumed, looked up): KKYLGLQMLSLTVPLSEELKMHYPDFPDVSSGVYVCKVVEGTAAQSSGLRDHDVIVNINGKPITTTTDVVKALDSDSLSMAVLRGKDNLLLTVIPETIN

IL16_1, Q14005 = biological target: IL16_1, Q14005
Inadl_3, Q8NI35 = biological target: Inadl_3, Q8NI35
Inadl_4, Q8NI35 = biological target: Inadl_4, Q8NI35
Inadl_9, Q8NI35 = biological target: Inadl_9, Q8NI35
LNX2_3, Q8N448 = biological target: T4, LNX2_3, Q8N448
T4 sequence (Q8N448 463-564, limits assumed, looked up): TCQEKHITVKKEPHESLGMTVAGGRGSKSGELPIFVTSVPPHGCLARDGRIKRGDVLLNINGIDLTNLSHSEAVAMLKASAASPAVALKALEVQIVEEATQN

MAGI2_5, Q86UL8 = biological target: MAGI2_5, Q86UL8
MAST1, Q9Y2H9 = biological target: MAST1, Q9Y2H9
MPP7, Q5T2T1 = biological target: T5, MPP7, Q5T2T1
T5 sequence (Q5T2T1 134-230, limits assumed, looked up): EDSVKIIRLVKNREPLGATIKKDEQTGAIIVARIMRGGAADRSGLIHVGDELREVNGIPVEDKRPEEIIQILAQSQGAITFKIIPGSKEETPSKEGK

NHERF2_2, Q15599 = biological target: NHERF2_2, Q15599
NHERF4_1, Q86UT5-2 = biological target: NHERF4_1, Q86UT5-2
NOS1, P29475 = biological target: NOS1, P29475
PARD3B_1, Q8TEW8 = biological target: T6, PARD3B_1, Q8TEW8
T6 sequence (Q8TEW8 196-299, limits assumed, looked up): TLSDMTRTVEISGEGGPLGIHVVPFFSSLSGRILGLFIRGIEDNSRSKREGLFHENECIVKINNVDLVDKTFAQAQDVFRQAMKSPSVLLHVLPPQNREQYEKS

PARD3_3, Q8TEW0 = biological target: PARD3_3, Q8TEW0
PCLO, Q9Y6V0 = biological target: T7, PCLO, Q9Y6V0
T7 sequence (Q9Y6V0 4491-4600, limits assumed, looked up): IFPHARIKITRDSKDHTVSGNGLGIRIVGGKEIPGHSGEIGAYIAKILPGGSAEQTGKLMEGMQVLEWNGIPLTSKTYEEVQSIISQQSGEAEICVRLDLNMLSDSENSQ

SCRIB_2, Q14160 = biological target: SCRIB_2, Q14160
SNTA1, Q13424 = biological target: T8, SNTA1, Q13424
T8 sequence (Q13424 82-180, limits assumed, looked up): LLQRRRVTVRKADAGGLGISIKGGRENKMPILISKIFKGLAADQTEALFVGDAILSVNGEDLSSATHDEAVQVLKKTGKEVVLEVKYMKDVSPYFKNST

SNTG1, Q9NSN8 = biological target: T9, SNTG1, Q9NSN8
T9 sequence (Q9NSN8 52-150, limits assumed, looked up): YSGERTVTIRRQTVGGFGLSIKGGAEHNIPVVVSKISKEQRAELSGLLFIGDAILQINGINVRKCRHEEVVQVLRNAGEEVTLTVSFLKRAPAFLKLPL

SNTG2, Q9NY99 = biological target: T10, SNTG2, Q9NY99
T10 sequence (Q9NY99 68-166, limits assumed, looked up): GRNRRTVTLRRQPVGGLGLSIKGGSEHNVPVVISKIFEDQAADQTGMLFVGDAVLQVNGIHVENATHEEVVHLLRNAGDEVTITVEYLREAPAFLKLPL

SYNJ2BP, P57105 = biological target: T11, SYNJ2BP, P57105
T11 sequence (P57105 8-110, limits assumed, looked up): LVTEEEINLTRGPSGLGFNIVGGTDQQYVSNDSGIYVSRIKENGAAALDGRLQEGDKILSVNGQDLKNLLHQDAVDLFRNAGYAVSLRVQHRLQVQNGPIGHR

TJP1_2, Q07157 = biological target: TJP1_2, Q07157
[1] = plain residues with an end cap or a label only (N-terminal biotin on a linker: ado-ado)
[2] = modified: phospho on T at position -2 from the C-terminal residue

IL16_1, Q14005, sequence (Q14005 210-306): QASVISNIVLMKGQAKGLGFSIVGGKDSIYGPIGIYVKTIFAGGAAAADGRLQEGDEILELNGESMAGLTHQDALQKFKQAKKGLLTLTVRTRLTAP
Inadl_9, Q8NI35, sequence (Q8NI35 1530-1615): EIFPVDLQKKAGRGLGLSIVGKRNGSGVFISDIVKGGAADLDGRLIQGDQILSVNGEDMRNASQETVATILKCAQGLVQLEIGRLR
Inadl_3, Q8NI35, sequence (Q8NI35 359-469): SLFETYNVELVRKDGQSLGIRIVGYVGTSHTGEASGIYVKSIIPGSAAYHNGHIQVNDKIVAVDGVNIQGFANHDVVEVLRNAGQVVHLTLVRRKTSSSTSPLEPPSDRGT
AHNAK1, Q09666, sequence (Q09666 4-100): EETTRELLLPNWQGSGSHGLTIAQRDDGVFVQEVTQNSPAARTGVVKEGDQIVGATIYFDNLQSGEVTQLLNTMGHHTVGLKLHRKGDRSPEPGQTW
NHERF4_1, Q86UT5-2, sequence (Q86UT5 other isoform, or with tags, fused parts or gaps): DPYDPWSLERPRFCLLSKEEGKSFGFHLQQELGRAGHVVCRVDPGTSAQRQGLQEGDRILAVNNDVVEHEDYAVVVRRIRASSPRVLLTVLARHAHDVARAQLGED
MAST1, Q9Y2H9, sequence (Q9Y2H9 962-1065): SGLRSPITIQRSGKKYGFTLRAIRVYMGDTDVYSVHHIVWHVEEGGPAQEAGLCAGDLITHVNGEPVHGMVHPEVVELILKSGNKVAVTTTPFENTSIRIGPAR
MAGI2_5, Q86UL8, sequence (Q86UL8 915-1017): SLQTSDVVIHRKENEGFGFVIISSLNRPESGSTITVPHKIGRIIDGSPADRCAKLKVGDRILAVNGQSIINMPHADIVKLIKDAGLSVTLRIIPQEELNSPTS
ARHGEF12, Q9NZN5-2, sequence (Q9NZN5 other isoform, or with tags, fused parts or gaps): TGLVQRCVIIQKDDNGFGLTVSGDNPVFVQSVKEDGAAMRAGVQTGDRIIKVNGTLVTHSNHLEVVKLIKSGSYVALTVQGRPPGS
TJP1_2, Q07157, sequence (Q07157 181-274): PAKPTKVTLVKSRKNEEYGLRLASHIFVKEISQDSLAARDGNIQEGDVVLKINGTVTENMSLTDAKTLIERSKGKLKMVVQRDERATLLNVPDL
Inadl_4, Q8NI35, sequence (Q8NI35 547-651): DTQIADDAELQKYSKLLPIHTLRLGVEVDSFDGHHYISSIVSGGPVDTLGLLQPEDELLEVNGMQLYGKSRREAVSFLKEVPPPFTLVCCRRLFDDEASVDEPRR
PARD3_3, Q8TEW0, sequence (Q8TEW0 582-685): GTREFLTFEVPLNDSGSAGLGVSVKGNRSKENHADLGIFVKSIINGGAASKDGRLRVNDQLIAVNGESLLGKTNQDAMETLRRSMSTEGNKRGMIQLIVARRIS
NHERF2_2, Q15599, sequence (Q15599 142-238): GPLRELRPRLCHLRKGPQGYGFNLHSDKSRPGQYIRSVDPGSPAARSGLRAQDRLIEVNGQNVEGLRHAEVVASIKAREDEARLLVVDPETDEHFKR
SCRIB_2, Q14160, sequence (Q14160 857-960): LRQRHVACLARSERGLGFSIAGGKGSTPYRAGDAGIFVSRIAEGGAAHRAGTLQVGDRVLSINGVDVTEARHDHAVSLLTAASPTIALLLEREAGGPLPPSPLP
NOS1, P29475, sequence (P29475 9-101): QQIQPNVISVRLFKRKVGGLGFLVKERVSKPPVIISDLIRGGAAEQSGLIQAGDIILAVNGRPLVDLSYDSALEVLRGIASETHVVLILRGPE

With GVHSNDHSVV [LPAR1, Q92633] the pKd (AHNAK1, Q09666; [1]) was “below the threshold”, the pKd (ARHGEF12, Q9NZN5-2; [1]) was 3.54 and the pKd (CARD11, Q9BXL7; [1]) was “below the threshold”. For the same binder, the pKd (DLG2_3, Q15700; [1]) was “below the threshold”, the pKd (HTRA3, P83110; [1]) was “below the threshold” and the pKd (HTRA4, P83105; [1]) was “below the threshold”. The pKd (IL16_1, Q14005; [1]) was 4.02, the pKd (Inadl_3, Q8NI35; [1]) was “below the threshold” and the pKd (Inadl_4, Q8NI35; [1]) was “below the threshold”. For the same binder, the pKd (Inadl_9, Q8NI35; [1]) was “below the threshold”, the pKd (LNX2_3, Q8N448; [1]) was “below the threshold” and the pKd (MAGI2_5, Q86UL8; [1]) was “below the threshold”. For the same binder, the pKd (MAST1, Q9Y2H9; [1]) was 3.89, the pKd (MPP7, Q5T2T1; [1]) was “below the threshold” and the pKd (NHERF2_2, Q15599; [1]) was “below the threshold”. For the same binder, the pKd (NHERF4_1, Q86UT5-2; [1]) was “below the threshold”, the pKd (NOS1, P29475; [1]) was “below the threshold” and the pKd (PARD3B_1, Q8TEW8; [1]) was “below the threshold”. For the same binder, the pKd (PARD3_3, Q8TEW0; [1]) was “below the threshold”, the pKd (PCLO, Q9Y6V0; [1]) was “below the threshold” and the pKd (SCRIB_2, Q14160; [1]) was “below the threshold”. The pKd (SNTA1, Q13424; [1]) was 3.68, the pKd (SNTG1, Q9NSN8; [1]) was “below the threshold” and the pKd (SNTG2, Q9NY99; [1]) was “below the threshold”. The pKd (SYNJ2BP, P57105; [1]) was 3.7 and the pKd (TJP1_2, Q07157; [1]) was “below the threshold”.

SRSRRRETAL [HPV33-E6_-2P, P06427] was tested, and the pKd (AHNAK1, Q09666; [2]) was “below the threshold”, the pKd (ARHGEF12, Q9NZN5-2; [2]) was “below the threshold” and the pKd (CARD11, Q9BXL7; [2]) was “below the threshold”. The pKd (DLG2_3, Q15700; [2]) was “below the threshold”, the pKd (HTRA3, P83110; [2]) was “below the threshold” and the pKd (HTRA4, P83105; [2]) was “below the threshold”. For the same binder, the pKd (IL16_1, Q14005; [2]) was “below the threshold”, the pKd (Inadl_3, Q8NI35; [2]) was “below the threshold” and the pKd (Inadl_4, Q8NI35; [2]) was “below the threshold”. The pKd (Inadl_9, Q8NI35; [2]) was “below the threshold”, the pKd (LNX2_3, Q8N448; [2]) was “below the threshold” and the pKd (MAGI2_5, Q86UL8; [2]) was “below the threshold”. The pKd (MAST1, Q9Y2H9; [2]) was “below the threshold”, the pKd (MPP7, Q5T2T1; [2]) was “below the threshold” and the pKd (NHERF2_2, Q15599; [2]) was “below the threshold”. For the same binder, the pKd (NHERF4_1, Q86UT5-2; [2]) was 4.6, the pKd (NOS1, P29475; [2]) was 3.75 and the pKd (PARD3B_1, Q8TEW8; [2]) was “below the threshold”. For the same binder, the pKd (PARD3_3, Q8TEW0; [2]) was “below the threshold”, the pKd (PCLO, Q9Y6V0; [2]) was “below the threshold” and the pKd (SCRIB_2, Q14160; [2]) was “below the threshold”. For the same binder, the pKd (SNTA1, Q13424; [2]) was “below the threshold”, the pKd (SNTG1, Q9NSN8; [2]) was “below the threshold” and the pKd (SNTG2, Q9NY99; [2]) was “below the threshold”. The pKd (SYNJ2BP, P57105; [2]) was “below the threshold” and the pKd (TJP1_2, Q07157; [2]) was “below the threshold”.
